Among the targets are LNX1_2, Q8TBB1; FRMPD2_3, Q68DX3; GRASP, Q7Z6J2; FRMPD2_2, Q68DX3; MAGI1_2, Q96QZ7; SNX27, Q96L92; PICK1, Q9NRD5; Inadl_6, Q8NI35; GRID2IP_2, A4D2P6; LAP2, Q96RT1.
What all share (assay): holdup assay
Set-up in all cases: key: below the threshold = too weak to quantify, mostly under pKd 3.1 to 4
Settings in all cases: plain residues with an end cap or a label only (N-terminal biotin on a linker: ado-ado)

The target in another test is T1, LIN7B, Q9HAP6.
T1 sequence (Q9HAP6 88-185, limits assumed, looked up): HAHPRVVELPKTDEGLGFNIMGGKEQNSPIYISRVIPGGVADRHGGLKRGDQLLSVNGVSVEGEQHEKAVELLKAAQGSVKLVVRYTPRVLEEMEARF

For the next test, the target named is T2, TIAM2, Q8IVF5.
T2 sequence (Q8IVF5 885-986, limits assumed, looked up): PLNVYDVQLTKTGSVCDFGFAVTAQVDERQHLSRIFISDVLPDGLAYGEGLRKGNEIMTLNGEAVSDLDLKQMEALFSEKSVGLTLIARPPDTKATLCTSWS

A further test deals with T3, MPDZ_5, O75970.
T3 sequence (O75970 695-796, limits assumed, looked up): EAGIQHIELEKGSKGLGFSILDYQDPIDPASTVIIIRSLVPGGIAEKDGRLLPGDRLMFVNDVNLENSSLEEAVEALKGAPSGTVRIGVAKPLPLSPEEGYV

In the next test the target is T4, GRIP1_4, Q9Y3R0.
T4 sequence (Q9Y3R0 467-571, limits assumed, looked up): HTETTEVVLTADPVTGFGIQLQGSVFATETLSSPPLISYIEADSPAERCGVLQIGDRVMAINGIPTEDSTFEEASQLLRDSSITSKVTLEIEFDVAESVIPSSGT

The next test deals with T5, TX1BP3, O14907.
T5 sequence (O14907 10-122, limits assumed, looked up): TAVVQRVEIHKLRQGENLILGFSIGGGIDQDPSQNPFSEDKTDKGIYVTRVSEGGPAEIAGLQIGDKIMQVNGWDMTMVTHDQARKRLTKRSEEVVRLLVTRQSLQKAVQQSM

The next test concerns the target T6, PDZD2_2, O15018.
T6 sequence (O15018 329-429, limits assumed, looked up): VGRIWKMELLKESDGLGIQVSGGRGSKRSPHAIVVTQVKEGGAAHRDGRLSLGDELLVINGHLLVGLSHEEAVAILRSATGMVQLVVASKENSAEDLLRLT

The target in a further test is T7, SNTB1, Q13884.
T7 sequence (Q13884 107-205, limits assumed, looked up): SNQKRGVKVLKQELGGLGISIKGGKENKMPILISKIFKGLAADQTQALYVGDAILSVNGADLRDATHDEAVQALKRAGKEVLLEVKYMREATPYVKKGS

In another test the target is T8, ARHGEF11, O15085.
T8 sequence (O15085 42-136, limits assumed, looked up): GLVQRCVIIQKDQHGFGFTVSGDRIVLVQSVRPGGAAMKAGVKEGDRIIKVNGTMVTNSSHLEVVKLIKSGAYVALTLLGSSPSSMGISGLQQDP

The target of a further test is T9, APBA1_1, Q02410.
T9 sequence (Q02410 651-752, limits assumed, looked up): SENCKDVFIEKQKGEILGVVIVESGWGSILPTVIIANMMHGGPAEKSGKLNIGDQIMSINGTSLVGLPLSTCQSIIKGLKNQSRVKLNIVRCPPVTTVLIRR

The target in the next test is T10, MPDZ_10, O75970.
T10 sequence (O75970 1624-1722, limits assumed, looked up): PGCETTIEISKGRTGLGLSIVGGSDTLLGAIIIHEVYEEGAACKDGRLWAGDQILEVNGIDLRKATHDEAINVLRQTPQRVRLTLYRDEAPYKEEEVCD

Another test addresses T11, DVL3, Q92997.
T11 sequence (Q92997 244-331, limits assumed, looked up): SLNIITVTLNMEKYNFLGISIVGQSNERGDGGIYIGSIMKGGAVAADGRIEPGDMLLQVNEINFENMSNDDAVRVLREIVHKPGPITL

The next test has as its target T12, LIN7C, Q9NUP9.
T12 sequence (Q9NUP9 88-185, limits assumed, looked up): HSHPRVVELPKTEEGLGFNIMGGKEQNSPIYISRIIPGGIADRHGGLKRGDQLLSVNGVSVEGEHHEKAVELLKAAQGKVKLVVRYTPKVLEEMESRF

Another test has as its target T13, DLG3_2, Q92796.
T13 sequence (Q92796 221-321, limits assumed, looked up): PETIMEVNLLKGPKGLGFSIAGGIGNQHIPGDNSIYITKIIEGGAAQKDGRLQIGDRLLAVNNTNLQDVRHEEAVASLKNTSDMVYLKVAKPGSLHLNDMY

This is an account of results in paper PMC9482650, “Quantitative fragmentomics allow affinity mapping of interactomes” (Nature Communications, 2022).

LNX1_2, Q8TBB1, sequence (Q8TBB1 371-470): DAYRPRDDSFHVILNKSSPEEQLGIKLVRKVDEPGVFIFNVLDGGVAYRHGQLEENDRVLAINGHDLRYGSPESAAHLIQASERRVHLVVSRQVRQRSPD
MAGI1_2, Q96QZ7, sequence (Q96QZ7 456-580): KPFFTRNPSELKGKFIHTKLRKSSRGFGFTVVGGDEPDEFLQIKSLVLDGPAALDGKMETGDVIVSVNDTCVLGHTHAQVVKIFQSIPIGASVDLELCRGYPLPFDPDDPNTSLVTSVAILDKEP
FRMPD2_2, Q68DX3, sequence (Q68DX3 944-1038): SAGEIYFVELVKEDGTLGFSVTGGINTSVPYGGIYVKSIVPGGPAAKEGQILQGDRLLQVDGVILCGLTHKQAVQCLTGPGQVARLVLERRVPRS
PICK1, Q9NRD5, sequence (Q9NRD5 17-115): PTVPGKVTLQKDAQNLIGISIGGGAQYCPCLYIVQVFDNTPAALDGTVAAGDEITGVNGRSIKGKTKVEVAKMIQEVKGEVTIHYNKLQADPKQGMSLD
GRID2IP_2, A4D2P6, sequence (A4D2P6 272-370): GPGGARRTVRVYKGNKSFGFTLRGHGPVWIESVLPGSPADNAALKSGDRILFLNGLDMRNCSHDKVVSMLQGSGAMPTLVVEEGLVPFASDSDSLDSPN
GRASP, Q7Z6J2, sequence (Q7Z6J2 96-193): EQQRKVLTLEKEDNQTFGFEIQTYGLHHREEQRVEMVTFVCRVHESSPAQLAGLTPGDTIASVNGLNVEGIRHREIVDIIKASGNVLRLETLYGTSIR
LAP2, Q96RT1, sequence (Q96RT1 other isoform, or with tags, fused parts or gaps): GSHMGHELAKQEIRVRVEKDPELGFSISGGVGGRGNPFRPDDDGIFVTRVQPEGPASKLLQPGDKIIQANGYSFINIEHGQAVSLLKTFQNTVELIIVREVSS
Inadl_6, Q8NI35, sequence (Q8NI35 1058-1167): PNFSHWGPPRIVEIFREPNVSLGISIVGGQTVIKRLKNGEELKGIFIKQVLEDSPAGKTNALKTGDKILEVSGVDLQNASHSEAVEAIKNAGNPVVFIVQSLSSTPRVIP
FRMPD2_3, Q68DX3, sequence (Q68DX3 1073-1166): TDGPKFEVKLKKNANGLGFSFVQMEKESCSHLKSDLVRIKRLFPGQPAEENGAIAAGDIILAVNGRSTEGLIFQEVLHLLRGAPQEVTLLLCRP

For VISSDDLTEL [CAPN6, Q9Y6Q1], the pKd (commonly the Kd on a negative log10 scale, so that one unit is a factor of ten) was 3.56 in the test with LIN7B, Q9HAP6; “below the threshold” with LNX1_2, Q8TBB1; 3.96 with TIAM2, Q8IVF5; “below the threshold” with MPDZ_5, O75970; “below the threshold” with FRMPD2_3, Q68DX3; 4.21 with GRASP, Q7Z6J2. In addition, the pKd entry with FRMPD2_2, Q68DX3 was “below the threshold”; with GRIP1_4, Q9Y3R0, “below the threshold”; with TX1BP3, O14907, “below the threshold”; in the test with MAGI1_2, Q96QZ7, “below the threshold”; with PDZD2_2, O15018 it was 4.39; with SNTB1, Q13884, “below the threshold”. Besides, the pKd with ARHGEF11, O15085 is 4.45; in the test with APBA1_1, Q02410, “below the threshold”; in the test with MPDZ_10, O75970, “below the threshold”; with SNX27, Q96L92, 4.17; in the test with PICK1, Q9NRD5, “below the threshold”; with Inadl_6, Q8NI35 it was “below the threshold”. The pKd result with DVL3, Q92997 is “below the threshold”; with LIN7C, Q9NUP9, “below the threshold”; with GRID2IP_2, A4D2P6 it was 4.34; with LAP2, Q96RT1, “below the threshold”; with DLG3_2, Q92796, 3.99.

With AKADAQESRL [PLCB2, Q00722], the pKd result with LIN7B, Q9HAP6 is reported as “below the threshold”; in the test with LNX1_2, Q8TBB1, “below the threshold”; in the test with TIAM2, Q8IVF5, “below the threshold”; with MPDZ_5, O75970, “below the threshold”; with FRMPD2_3, Q68DX3, “below the threshold”; with GRASP, Q7Z6J2 it was “below the threshold”. In addition, the pKd entry with FRMPD2_2, Q68DX3 was “below the threshold”; with GRIP1_4, Q9Y3R0, “below the threshold”; in the test with TX1BP3, O14907 it was 3.96; with MAGI1_2, Q96QZ7, “below the threshold”; with PDZD2_2, O15018, “below the threshold”; in the test with SNTB1, Q13884 it was 4.43. The pKd with ARHGEF11, O15085 was 3.66; with APBA1_1, Q02410, “below the threshold”; in the test with MPDZ_10, O75970, “below the threshold”; in the test with SNX27, Q96L92, 5.21; with PICK1, Q9NRD5 it was “below the threshold”; with Inadl_6, Q8NI35 it was 3.48. The pKd entry is “below the threshold” with DVL3, Q92997; 4.28 with LIN7C, Q9NUP9; 3.86 in the test with GRID2IP_2, A4D2P6; “below the threshold” with LAP2, Q96RT1; “below the threshold” in the test with DLG3_2, Q92796.

With TNSKQGETTV [FZD1, Q9UP38], the pKd entry was “below the threshold” in the test with LIN7B, Q9HAP6; 3.68 with LNX1_2, Q8TBB1; “below the threshold” with TIAM2, Q8IVF5; “below the threshold” with MPDZ_5, O75970; 3.74 with FRMPD2_3, Q68DX3; “below the threshold” with GRASP, Q7Z6J2. Also, the pKd entry was “below the threshold” with FRMPD2_2, Q68DX3; “below the threshold” with GRIP1_4, Q9Y3R0; 4.17 in the test with TX1BP3, O14907; 3.82 in the test with MAGI1_2, Q96QZ7; 3.93 with PDZD2_2, O15018; 4.72 in the test with SNTB1, Q13884. For the same molecule, the pKd with ARHGEF11, O15085 was 4.25; in the test with APBA1_1, Q02410, “below the threshold”; with MPDZ_10, O75970, “below the threshold”; in the test with SNX27, Q96L92 it was 5.5; in the test with PICK1, Q9NRD5 it was 4.2; with Inadl_6, Q8NI35 it was “below the threshold”. Moreover, the pKd with DVL3, Q92997 is 3.61; with LIN7C, Q9NUP9 it was 4.45; with GRID2IP_2, A4D2P6 it was 3.79; with LAP2, Q96RT1, 3.61; with DLG3_2, Q92796 it was 4.64.

As for TFSRRPKTRV [CD226, Q15762], the pKd result in the test with LIN7B, Q9HAP6 is “below the threshold”; with LNX1_2, Q8TBB1 it was “below the threshold”; with TIAM2, Q8IVF5, “below the threshold”; with MPDZ_5, O75970, “below the threshold”; with FRMPD2_3, Q68DX3 it was “below the threshold”; with GRASP, Q7Z6J2, 3.98. Moreover, the pKd result with FRMPD2_2, Q68DX3 is “below the threshold”; in the test with GRIP1_4, Q9Y3R0 it was “below the threshold”; in the test with TX1BP3, O14907, “below the threshold”; in the test with MAGI1_2, Q96QZ7 it was 4.75; with PDZD2_2, O15018 it was “below the threshold”; in the test with SNTB1, Q13884, “below the threshold”. Besides, the negative-log Kd (pKd) in the test with ARHGEF11, O15085 is 4.06; in the test with APBA1_1, Q02410 it was “below the threshold”; with MPDZ_10, O75970, 4.03; with SNX27, Q96L92 it was 3.88; with PICK1, Q9NRD5, “below the threshold”; with Inadl_6, Q8NI35, “below the threshold”. The pKd result with DVL3, Q92997 was “below the threshold”; with LIN7C, Q9NUP9 it was “below the threshold”; with GRID2IP_2, A4D2P6 it was 4.16; with LAP2, Q96RT1, “below the threshold”; in the test with DLG3_2, Q92796, “below the threshold”.

Regarding THHRKIHTRV [ZNF599, Q96NL3], the pKd entry was “below the threshold” in the test with LIN7B, Q9HAP6; 3.5 in the test with LNX1_2, Q8TBB1; 3.57 with TIAM2, Q8IVF5; 3.55 in the test with MPDZ_5, O75970; 3.53 in the test with FRMPD2_3, Q68DX3; 3.76 in the test with GRASP, Q7Z6J2. The pKd is 3.52 with FRMPD2_2, Q68DX3; “below the threshold” with GRIP1_4, Q9Y3R0; 3.74 in the test with TX1BP3, O14907; 4.96 with MAGI1_2, Q96QZ7; “below the threshold” with PDZD2_2, O15018; 4.36 in the test with SNTB1, Q13884. The pKd was 4.25 in the test with ARHGEF11, O15085; “below the threshold” in the test with APBA1_1, Q02410; 3.92 with MPDZ_10, O75970; 4.31 with SNX27, Q96L92; “below the threshold” with PICK1, Q9NRD5; “below the threshold” with Inadl_6, Q8NI35. The negative logarithm of the Kd (pKd) result in the test with DVL3, Q92997 is “below the threshold”; in the test with LIN7C, Q9NUP9, “below the threshold”; in the test with GRID2IP_2, A4D2P6, 3.8; with LAP2, Q96RT1, “below the threshold”; with DLG3_2, Q92796, 5.26.
